The target in assay [1] is Islet amyloid polypeptide (IAPP), human (human) (UniProt P10997). The experiment in a line: FRET or BRET; diluted-FRET inside live INS-1 cells; 10 uM IAPP, no ADM-116 (toxic condition); donor:acceptor:unlabelled 1:1:500; 24 h.
Assay [2] has the same target. In words: FRET or BRET; diluted-FRET inside live INS-1 cells; 10 uM IAPP, no ADM-116 (toxic condition); donor:acceptor:unlabelled 1:1:500; 48 h. (In BRET a luciferase serves as donor, and the signal depends on an acceptor being close.)
Assay [3] shares this target. In words: FRET or BRET; diluted-FRET inside live INS-1 cells; 10 uM IAPP in the medium, equimolar ADM-116 added 3 h later (rescued condition); donor:acceptor:unlabelled 1:1:100; 24 h and 48 h.
Assay [4] shares this target. The experiment in a line: FRET or BRET; diluted-FRET by confocal imaging on GPMVs from INS-1 cells; 50 uM IAPP, 5 uM phospholipid, no ADM-116 (10:1:0); donor:acceptor:unlabelled 1:1:500; first 34 min (small sieve size leakage).

“Islet amyloid polypeptide (IAPP), human (from UniProt P10997 34-70)” showed an FRETeff (peak at 24 h) in assay [1] of 0.36. In addition, the FRETeff (peak at 48 h) in assay [2] came out at 0.62. The substance further had an FRETeff (single peak, rescued with ADM-116) in assay [3] of 0.6. In assay [4], this substance registered an FRETeff (peak 1 of 4, first 34 min) of 0.21; an FRETeff (peak 2 of 4, first 34 min) of 0.36; an FRETeff (peak 3 of 4, first 34 min) of 0.41; an FRETeff (peak 4 of 4, first 34 min) of 0.58.

The values above are taken from PMC5882805.
